Kd, EC50 and selectivity for ePHF over wild type tau data for three molecules are collected here from patent publication US20230192830A1.

Residue numbers refer to the chain shown, from its start.

Settings in all cases: remark: other sources report otherwise
Assay [1] concerns the target iPHF, P10636. The assay is described as follows: Octet BLI, antibody on biosensor, iPHF in solution. In general terms: In BLI a coated tip is dipped into the sample, and binding shifts an interference pattern.
The target in assay [2] is T1, enriched paired helical filament tau protein (ePHF) (human), P10636. The assay is described as follows: direct ELISA, ePHF coated. For orientation: In an ELISA, binding on a coated surface is turned into a signal by an enzyme label.
In assay [3] the target is T1, enriched paired helical filament tau …. The assay is described as follows: follow up analysis, method not stated.

iPHF, P10636, sequence (P10636 other isoform, or with tags, fused parts or gaps): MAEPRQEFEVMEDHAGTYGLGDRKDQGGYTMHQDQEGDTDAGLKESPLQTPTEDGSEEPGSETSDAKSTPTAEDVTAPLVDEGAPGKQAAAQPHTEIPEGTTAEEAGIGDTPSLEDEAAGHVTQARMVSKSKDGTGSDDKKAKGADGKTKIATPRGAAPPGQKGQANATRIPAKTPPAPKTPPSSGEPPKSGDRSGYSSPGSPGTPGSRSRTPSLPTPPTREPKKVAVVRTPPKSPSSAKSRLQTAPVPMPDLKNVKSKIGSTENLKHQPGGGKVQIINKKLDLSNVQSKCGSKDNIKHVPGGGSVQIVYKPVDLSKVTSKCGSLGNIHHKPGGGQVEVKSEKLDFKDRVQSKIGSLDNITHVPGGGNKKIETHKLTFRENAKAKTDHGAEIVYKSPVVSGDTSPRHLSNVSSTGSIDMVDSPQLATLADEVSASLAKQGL
T1 sequence (P10636 other isoform, or with tags, fused parts or gaps limits assumed): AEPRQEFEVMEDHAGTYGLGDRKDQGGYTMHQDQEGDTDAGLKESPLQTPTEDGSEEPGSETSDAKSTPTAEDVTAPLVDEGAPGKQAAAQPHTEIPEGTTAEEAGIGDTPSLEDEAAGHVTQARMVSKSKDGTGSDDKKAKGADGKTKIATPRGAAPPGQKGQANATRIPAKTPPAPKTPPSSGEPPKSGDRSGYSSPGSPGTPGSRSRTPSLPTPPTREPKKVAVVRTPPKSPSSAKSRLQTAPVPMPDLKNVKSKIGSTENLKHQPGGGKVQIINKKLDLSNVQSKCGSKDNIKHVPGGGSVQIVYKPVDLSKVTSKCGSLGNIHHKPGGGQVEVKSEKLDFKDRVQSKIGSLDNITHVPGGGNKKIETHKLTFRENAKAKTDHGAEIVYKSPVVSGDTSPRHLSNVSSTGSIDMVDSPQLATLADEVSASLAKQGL

B1: V0022 (antibody, mouse IgG1, V domains shown)
VH: QVQLQQPGTELVKPGSSVNLSCKASGFTFTRYWMHWVKERPGHGLEWIGNINPNNGGTDFNEKFKNKATLTVHKSSTTVFIQLSSLTSEDSAVYYCARGTGTGAMDYWGQGTSVTVSS
VL: DVVMTQTPLSLPVSLGDQASISCRSSQSLVHNNGITYLYWYLQKPGQSPKLLIYRVSNRFSGVPDRFGGSGSGTDFTLKISRVEAEDLGVYFCFQGTHVPRTFGGGTKLEIK
By Kd is commonly meant the free concentration of one partner at which half of the binding sites on the other are occupied at equilibrium, for simple one-to-one binding. In turn, B1 displayed a Kd in assay [1] of 300 pM.

B2: V0024 (antibody, mouse IgG1, V domains shown)
VH: QVQLQQPGTELVKPGASVKLSCKASGYTFTRFWMHWVKQRPGQGLEWIGNINPNNGGTDNNERFKSKATLTVDRSSSTAYMQLSSLTSEDSAVYYCARGTGTGAMDYWGQGTSVTVSS
VL: B1 VL with N32S, I35N, Y37H, N58S, G68S
The EC50 is the concentration at which the effect is half-maximal. Turning to B2, the EC50 in assay [2] turned out to be 125 pM. Moreover, in assay [3], the selectivity for ePHF over wild type tau was over 100 fold.

B3: V0023 (antibody, mouse IgG1, V domains shown)
VH: B2 VH with R31I, Q43H, N50K, T58G, N60Y, R63K, R74K, S77T, M81L
VL: B1 VL with Q18H, N32S, Y37H, K44R, S48T, G68S, R82S, K112E
Turning to B3, the Kd in assay [1] was determined as 4000 pM.
